From publication PMC3950713
Residue numbers refer to the chain shown, from its start.

Columns and labels:
Assay in all cases: MST
[1] = target: T1, HpDprA(5-217)R52E/K137E (Helicobacter pylori 26695, UniProt O25100 5-217, R52E;K137E)
T1 sequence: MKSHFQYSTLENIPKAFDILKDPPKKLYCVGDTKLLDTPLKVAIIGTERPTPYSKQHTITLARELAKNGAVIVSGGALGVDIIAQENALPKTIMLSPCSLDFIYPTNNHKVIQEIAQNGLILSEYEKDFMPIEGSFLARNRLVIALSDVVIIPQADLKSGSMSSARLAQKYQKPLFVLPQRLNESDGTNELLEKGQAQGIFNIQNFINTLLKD

[2] = target: T2, HpDprA full-length (Helicobacter pylori 26695, UniProt O25100 1-270)
T2 sequence: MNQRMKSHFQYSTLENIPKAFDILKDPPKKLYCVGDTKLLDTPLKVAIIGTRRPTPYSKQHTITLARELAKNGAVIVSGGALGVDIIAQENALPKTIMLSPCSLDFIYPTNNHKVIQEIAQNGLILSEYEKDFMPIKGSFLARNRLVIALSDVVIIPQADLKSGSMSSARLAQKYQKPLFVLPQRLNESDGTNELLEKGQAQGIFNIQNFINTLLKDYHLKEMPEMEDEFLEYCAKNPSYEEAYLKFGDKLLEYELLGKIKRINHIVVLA

[3] = target: T3, HpDprA(5-217)K137E/R143E (Helicobacter pylori 26695, UniProt O25100 5-217, K137E;R143E)
T3 sequence: T1 sequence with E48R, R139E

[4] = target: T4, HpDprA(5-217)WT (Helicobacter pylori 26695, UniProt O25100 5-217)
T4 sequence: T1 sequence with E48R, E133K

[5] = target: T5, HpDprA(5-217)R52E/R143E (Helicobacter pylori 26695, UniProt O25100 5-217, R52E;R143E)
T5 sequence: T1 sequence with E133K, R139E

[6] = target: T6, HpDprA(5-225) (Helicobacter pylori 26695, UniProt O25100 5-225)
T6 sequence: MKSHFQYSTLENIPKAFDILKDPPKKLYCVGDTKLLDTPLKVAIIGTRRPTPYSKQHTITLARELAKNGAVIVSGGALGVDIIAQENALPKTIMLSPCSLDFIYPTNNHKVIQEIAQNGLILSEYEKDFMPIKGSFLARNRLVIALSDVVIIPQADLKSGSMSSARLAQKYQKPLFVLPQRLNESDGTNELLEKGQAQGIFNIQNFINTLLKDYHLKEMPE

[7] = target: T7, HpDprA(5-217)F140E (Helicobacter pylori 26695, UniProt O25100 5-217, F140E)
T7 sequence: T1 sequence with E48R, E133K, F136E

TTTTTTTTTTTTTTTTTTTTTTTTTTTTTTTTTTT (ssDNA) [dT35]
binding result [1]: no binding | Kd [2]: 2.26 ± 0.167 nM | binding result [3]: no binding | Kd [4]: 31.5 ± 0.806 nM | binding result [5]: no binding | Kd [6]: 30.6 ± 0.998 nM | Kd [7]: 556 ± 28 nM
